Laboratory results as given in patent publication US20120034693A1.

Tests used:
[1] = target: wild type Apolipoprotein B mRNA-editing enzyme-catalytic polypeptide-like 3G (A3G), cmyc-tagged, expressed from pD3GFP / D3GFP (human) (UniProt Q9HC16); assay: cell-based or functional assay
[2] = target: mutant A3G D128K, cmyc-tagged, expressed from pD3GFPD128K / D3GFPD128K (human) (UniProt Q9HC16); assay: cell-based or functional assay

For “HIV-1 viral infectivity factor (Vif), expressed from the helper plasmid pcHelp”, the infectivity of HIV-GFP virus produced from vector-carrying 293T cells in the presence of HIV-1 Vif, percent of control [1] was 89 % of control, the infectivity of HIV-GFP virus produced from vector-carrying 293T cells in the presence of HIV-1 Vif, percent of control [2] was 1 % of control and the inhibition of HIV-GFP replication by the A3G-expressing plasmid in the presence of HIV-1 Vif (GFP flow cytometry of infected 293T cells) [2] was 90%.
